Assay results taken from patent US20110126301A1 (WALTER AND ELIZA HALL INSTITUTE OF MEDICAL RESEARCH, published 2011).

How the values were obtained:
[1] = molecular target: T1, human 5B6 (CLEC9A), membrane bound (human, UniProt Q6UXN8 1-241); experiment: flow cytometry on cells expressing 5B6
T1 construct: Full length on transfectant cells or native on human blood BDCA-3+ DC; also called h5B6; HEEE9341

[2] = molecular target: T1, human 5B6 (CLEC9A), membrane bound; experiment: flow cytometry on transiently transfected 293T cells; anti-FLAG 9H10-biotin and streptavidin-PE
Source text: To identify binding partners for the 5B6 molecule, the inventors generated soluble FLAG-tagged m5B6 and h5B6 which encompassed the ectodomain of 5B6 including the stalk region and the C-type lectin-like domain (CTLD), denoted in FIG. 11A as “Original (with stalk)”. A soluble FLAG-tagged ectodomain version of the C-type lectin Cire was also generated as a control molecule. […] Thus, soluble 5B6 can interact with membrane bound 5B6 in a cross-species manner.

T1 sequence (Q6UXN8 whole entry): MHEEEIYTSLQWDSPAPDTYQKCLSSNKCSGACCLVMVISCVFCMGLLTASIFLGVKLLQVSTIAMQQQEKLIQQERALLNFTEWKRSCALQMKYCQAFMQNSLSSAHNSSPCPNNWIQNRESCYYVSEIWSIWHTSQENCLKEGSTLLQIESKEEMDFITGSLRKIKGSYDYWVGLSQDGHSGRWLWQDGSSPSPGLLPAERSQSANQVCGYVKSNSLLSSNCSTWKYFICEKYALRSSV

binding result [1] | binding result [2] | Binder
binds | – | rat mAb 24/04-10B4 (anti-5B6 / anti-Clec9A antibody) (antibody, V domains shown, Rat IgG2a, kappa, from hybridoma 24/04-10B4 (peptide immunisation); Used biotinylated or APC-conjugated in flow cytometry; also called anti-m5B6 mAb; anti-5B6 mAb) VH: AVQIVESGGGLVQPKESLKISCTASGFTFSNAAIYWVRQTPGKGLEWVGRIRTRPSKYATDYADSVRGRFTISRDDSKSMVYLQMDNLRTEDTAMYYCTPRATEDVPFYWGQGVMVTVSS VL: DIVMTQTPSSQAVSAGEKVTMNCKSSQSVLYDENKKNYLAWYQQKSGQSPKLLIYWASTGESGVPDRFIGSGSGTDFTLTISSVQAEDLAVYYCQQYYDFPPTFGGGTKLELKR
– | binds | soluble FLAG-tagged mouse 5B6 including stalk (receptor, also called soluble m5B6; soluble mouse 5B6) ASISARQNSGLHHILDAQKMVWNHRGARQDYKDDDDKTREQQERLIQQDTALVNLTQWQRKYTLEYCQALLQRSLHSGTDASTGPVLLTSPQMVPQTLDSKETGSDCSPCPHNWIQNGKSCYYVFERWEMWNISKKSCLKEGASLFQIDSKEEMEFISSIGKLKGGNKYWVGVFQDGISGSWFWEDGSSPLSDLLPAERQRSAGQICGYLKDSTLISDKCDSWKYFICEKKAFGSCI
– | binds | soluble FLAG-tagged human 5B6 including stalk (receptor, also called soluble h5B6; soluble human 5B6) not shown
